Laboratory results taken from article PMC5788269, “Architecture of eukaryotic mRNA 3′-end processing machinery” (Science (New York, N.y.), 2017).

B1: Pfs2 (recombinant, polymerase module) (natural protein, yeast)
chain: MDGHNQNQYQNQNQIQQSQQPPLKKYVTQRRSVDVSSPYINLYYNRRHGLPNLVVEPETSYTIDIMPPNAYRGRDRVINLPSKFTHLSSNKVKHVIPAIQWTPEGRRLVVATYSGEFSLWNASSFTFETLMQAHDSAVTTMKYSHDSDWMISGDADGMIKIWQPNFSMVKEIDAAHTESIRDMAFSSNDSKFVTCSDDNILKIWNFSNGKQERVLSGHHWDVKSCDWHPEMGLIASASKDNLVKLWDPRSGNCISSILKFKHTVLKTRFQPTKGNLLMAISKDKSCRVFDIRYSMKELMCVRDETDYMTLEWHPINESMFTLACYDGSLKHFDLLQNLNEPILTIPYAHDKCITSLSYNPVGHIFATAAKDRTIRFWTRARPIDPNAYDDPTYNNKKINGWFFGINNDINAVREKSEFGAAPPPPATLEPHALPNMNGFINKKPRQEIPGIDSNIKSSTLPGLSI
notes: Pfs2, yeast; ordered in the cryo-EM map: residues 27 to 411; source: overexpressed in insect cells, purified as part of the polymerase module
B2: Fip1 (recombinant, polymerase module) (natural protein, yeast, UniProt P45976 1-327, looked up)
chain: MSSSEDEDDKFLYGSDSELALPSSKRSRDDEADAGASSNPDIVKRQKFDSPVEETPATARDDRSDEDIYSDSSDDDSDSDLEVIISLGPDPTRLDAKLLDSYSTAATSSSKDVISVATDVSNTITKTSDERLITEGEANQGVTATTVKATESDGNVPKAMTGSIDLDKEGIFDSVGITTIDPEVLKEKPWRQPGANLSDYFNYGFNEFTWMEYLHRQEKLQQDYNPRRILMGLLSLQQQGKLNSANDTDSNLGNIIDNNNNVNNANMSNLNSNMGNSMSGTPNPPAPPMHPSFPPLPMFGSFPPFPMPGMMPPMNQQPNQNQNQNSK
notes: Fip1, yeast; present in the four-subunit complex but not visible in the cryo-EM map; source: overexpressed in insect cells, purified as part of the polymerase module
B3: Pap1 (recombinant, polymerase module) (enzyme, yeast, UniProt P29468 1-568, looked up)
chain: MSSQKVFGITGPVSTVGATAAENKLNDSLIQELKKEGSFETEQETANRVQVLKILQELAQRFVYEVSKKKNMSDGMARDAGGKIFTYGSYRLGVHGPGSDIDTLVVVPKHVTREDFFTVFDSLLRERKELDEIAPVPDAFVPIIKIKFSGISIDLICARLDQPQVPLSLTLSDKNLLRNLDEKDLRALNGTRVTDEILELVPKPNVFRIALRAIKLWAQRRAVYANIFGFPGGVAWAMLVARICQLYPNACSAVILNRFFIILSEWNWPQPVILKPIEDGPLQVRVWNPKIYAQDRSHRMPVITPAYPSMCATHNITESTKKVILQEFVRGVQITNDIFSNKKSWANLFEKNDFFFRYKFYLEITAYTRGSDEQHLKWSGLVESKVRLLVMKLEVLAGIKIAHPFTKPFESSYCCPTEDDYEMIQDKYGSHKTETALNALKLVTDENKEEESIKDAPKAYLSTMYIGLDFNIENKKEKVDIHIPCTEFVNLCRSFNEDYGDHKVFNLALRFVKGYDLPDEVFDENEKRPSKKSKRKNLDARHETVKRSKSDAASGDNINGTTAAVDVN
notes: Pap1 poly(A) polymerase, yeast; source: overexpressed in insect cells, purified as part of the polymerase module

Tests used:
Settings in all cases: both partners purified
[1] = biological target: B3; experiment: cross-linking; cross-linking mass spectrometry of the polymerase module, to determine where Pap1 and Fip1 bind
[2] = biological target: T1, Cft1 (recombinant, polymerase module) (yeast, UniProt Q06632 1-1357); experiment: cryo-EM structure; recombinant four-subunit complex (Cft1, Pfs2, Yth1, Fip1) overexpressed in insect cells; overall resolution 3.5 Å
T1 construct: Cft1, yeast; ordered in the cryo-EM map: residues 1 to 1357 (several loops not visible); source: overexpressed in insect cells, purified as part of the polymerase module
T1 sequence: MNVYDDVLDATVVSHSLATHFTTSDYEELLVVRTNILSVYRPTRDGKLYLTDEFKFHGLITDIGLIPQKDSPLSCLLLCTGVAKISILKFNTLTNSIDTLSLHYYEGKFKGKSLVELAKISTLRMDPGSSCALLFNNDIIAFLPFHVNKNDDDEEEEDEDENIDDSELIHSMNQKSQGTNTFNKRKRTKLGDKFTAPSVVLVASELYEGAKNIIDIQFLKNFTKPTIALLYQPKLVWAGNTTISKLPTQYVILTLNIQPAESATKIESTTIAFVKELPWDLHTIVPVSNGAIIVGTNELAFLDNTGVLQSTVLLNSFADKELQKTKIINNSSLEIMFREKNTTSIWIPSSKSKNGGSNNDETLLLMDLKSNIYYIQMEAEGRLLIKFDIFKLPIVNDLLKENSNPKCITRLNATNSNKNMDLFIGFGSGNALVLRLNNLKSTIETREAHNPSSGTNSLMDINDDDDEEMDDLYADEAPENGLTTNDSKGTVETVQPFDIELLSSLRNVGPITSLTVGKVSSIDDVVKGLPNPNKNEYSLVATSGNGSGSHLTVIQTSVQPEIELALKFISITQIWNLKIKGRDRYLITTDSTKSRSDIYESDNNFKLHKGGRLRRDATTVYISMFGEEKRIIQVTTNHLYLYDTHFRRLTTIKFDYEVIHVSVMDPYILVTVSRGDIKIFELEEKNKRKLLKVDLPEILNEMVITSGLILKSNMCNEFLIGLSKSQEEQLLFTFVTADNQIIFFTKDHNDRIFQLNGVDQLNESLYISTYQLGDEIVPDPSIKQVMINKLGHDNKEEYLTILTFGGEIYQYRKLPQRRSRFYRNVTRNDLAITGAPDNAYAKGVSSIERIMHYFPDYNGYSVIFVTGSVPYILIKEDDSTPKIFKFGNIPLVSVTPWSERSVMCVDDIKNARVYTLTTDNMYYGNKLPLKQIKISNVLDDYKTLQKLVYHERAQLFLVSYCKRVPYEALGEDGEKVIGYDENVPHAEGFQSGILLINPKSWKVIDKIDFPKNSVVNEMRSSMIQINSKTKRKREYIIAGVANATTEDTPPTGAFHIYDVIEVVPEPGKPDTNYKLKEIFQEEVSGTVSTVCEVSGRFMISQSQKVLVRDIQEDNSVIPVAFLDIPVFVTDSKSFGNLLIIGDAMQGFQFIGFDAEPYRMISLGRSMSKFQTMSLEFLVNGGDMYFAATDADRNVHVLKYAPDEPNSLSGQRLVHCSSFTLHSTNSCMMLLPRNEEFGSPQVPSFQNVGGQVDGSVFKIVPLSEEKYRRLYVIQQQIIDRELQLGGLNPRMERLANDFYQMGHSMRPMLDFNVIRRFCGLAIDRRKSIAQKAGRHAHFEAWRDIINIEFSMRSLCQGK

[3] = biological target: B2; experiment: cross-linking; cross-linking mass spectrometry of the polymerase module, to determine where Pap1 and Fip1 bind
[4] = biological target: B1; experiment: cryo-EM structure; recombinant four-subunit complex (Cft1, Pfs2, Yth1, Fip1) overexpressed in insect cells; overall resolution 3.5 Å
[5] = biological target: T1, Cft1 (recombinant, polymerase module); experiment: cross-linking; cross-linking mass spectrometry of the polymerase module, to determine where Pap1 and Fip1 bind

Binder	binding result [1]	binding result [2]	binding result [3]	binding result [4]	binding result [5]
B1	binds	binds	–	–	–
Yth1 (recombinant, polymerase module) (natural protein, yeast, Yth1, yeast; ordered in the cryo-EM map: residues 1 to 94; zinc fingers 3 to 5 (residues 95 to 208) not visible; source: overexpressed in insect cells, purified as part of the polymerase module) SLIHPDTAKYPFKFEPFLRQEYSFSLDPDRPICEFYNSREGPKSCPRGPLCPKKHVLPIFQNKIVCRHWLRGLCKKNDQCEYLHEYNLRKMPECVFFSKNGYCTQSPDCQYLHIDPASKIPKCENYEMGFCPLGSSCPRRHIKKVFCQRYMTGFCPLGKDECDMEHPQFIIPDEGSKLRIKRDDEINTRKMDEEKERRLNAIINGEV	binds	binds	binds	binds	–
B2	binds	–	–	–	–
B3	–	–	–	–	binds
